For the data set, the target named is dipeptides with a proline at the second position.

B1: aminopeptidase T from Thermus aquaticus, with a Cys added at the N-terminus and a 6xHis at the C-terminus (protein)
chain: MCDAFTENLNKLAELAIRVGLNLEEGQEIVATAPIEAVDFVRLLAEKAYENGASLFTVLYGDNLIARKRLALVPEAHLDRAPAWLYEGMAKAFHEGAARLAVSGNDPKALEGLPPERVGRAQQAQSRAYRPTLSAITEFVTNWTIVPFAHPGWAKAVFPGLPEEEAVQRLWQAIFQATRVDQEDPVAAWEAHNRVLHAKVAFLNEKRFHALHFQGPGTDLTVGLAEGHLWQGGATPTKKGRLCNPNLPTEEVFTAPHRERVEGVVRASRPLALSGQLVEGLWARFEGGVAVEVGAEKGEEVLKKLLDTDEGARRLGEVALVPADNPIAKTGLVFFDTLFDENAASHIAFGQAYAENLEGRPSGEEFRRRGGNESMVHVDWMIGSEEVDVDGLLEDGTRVPLMRRGRWVIHHHHHH
B1: the “aminopeptidase assay, cleavage of the N-terminal amino acid” value is given as “TaqAPT cleaves dipeptides even with a proline at the second position”.

Values taken from US20200231956.
